Literature values in publication PMC11431639.

Legend:
INF2 DAD (Homo sapiens) = INF2 DAD (Homo sapiens) (UniProt Q27J81)
mDia1 DAD (Mus musculus) = mDia1 DAD (Mus musculus) (UniProt O08808)
mDia1 DAD (Mus musculus), sequence (O08808 1174-1208): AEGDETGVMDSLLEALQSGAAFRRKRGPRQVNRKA

mDia1 DID, sequence (O08808 129-369): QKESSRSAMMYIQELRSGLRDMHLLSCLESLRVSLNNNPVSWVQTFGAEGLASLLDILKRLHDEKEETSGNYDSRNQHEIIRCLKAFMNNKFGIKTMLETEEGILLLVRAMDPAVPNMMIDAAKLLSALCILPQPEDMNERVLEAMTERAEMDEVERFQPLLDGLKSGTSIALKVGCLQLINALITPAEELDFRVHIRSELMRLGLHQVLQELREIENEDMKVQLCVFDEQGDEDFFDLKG
INF2 DID, sequence (Q27J81 32-261): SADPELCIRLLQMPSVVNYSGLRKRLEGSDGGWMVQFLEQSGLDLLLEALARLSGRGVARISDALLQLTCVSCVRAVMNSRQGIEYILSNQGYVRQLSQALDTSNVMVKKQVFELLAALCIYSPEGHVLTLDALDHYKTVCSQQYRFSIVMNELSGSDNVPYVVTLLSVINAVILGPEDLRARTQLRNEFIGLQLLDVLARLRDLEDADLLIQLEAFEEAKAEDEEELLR
INF2 DAD (Homo sapiens), sequence (Q27J81 971-1000): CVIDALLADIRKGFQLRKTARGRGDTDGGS

Kd (INF2 DAD (Homo sapiens)) [nM]	Kd (mDia1 DAD (Mus musculus)) [nM]	Substance
1100		INF2 DID (from UniProt Q27J81)
	280	mDia1 DID (from UniProt O08808)
